Legend:
[1] = molecular target: Germline κI O18/O8 light chain variable domain (VL) (human)
[2] = molecular target: Germline κI O18/O8 light chain variable domain (VL) (human); remark: listed apart in the source

- t50 of de novo (nonseeded) ThT fibril formation of 20 µM κI, pH 2.0, 37 °C [1]: 266 h
- yield of de novo fibril formation (percent of the initial monomer in fibrils) [2]: 93.4%
Substance: Germline κI O18/O8 light chain variable domain (VL) (domain or fragment)

Source: paper PMC4968207
